In patent US7708999B2, “Remedies for arthritis” (Kyowa Hakko Kirin Co., Ltd., priority 2001, dated 2010):

Legend:
[1] = target: T1, FGF-8 (Homo sapiens, UniProt P55075); experiment: FGF-8 binding activity by BIAcore 2000, immobilized FGF-8; settings: antibody 50 μg/mL; FGF-8 immobilized 4498 RU
T1 construct: purchased R & D
T1 sequence (P55075 23-215 isoform P55075-3 limits assumed): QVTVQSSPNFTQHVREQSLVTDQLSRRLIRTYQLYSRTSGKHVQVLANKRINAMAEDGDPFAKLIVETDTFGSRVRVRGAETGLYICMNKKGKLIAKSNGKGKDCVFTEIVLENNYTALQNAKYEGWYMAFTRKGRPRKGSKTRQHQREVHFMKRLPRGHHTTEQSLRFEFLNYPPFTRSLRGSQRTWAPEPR
Description: In order to examine the FGF-8 binding activity of the various anti-FGF-8 neutralizing CDR-grafted antibodies obtained in 4. of Reference Example 2 in more detail, the FGF-8 binding activity of the various anti-FGF-8 neutralizing CDR-grafted antibodies was measured and compared in the following manner using BIAcore2000 (manufactured by BIACORE). The YB2/0 cell-derived anti-FGF-8 neutralizing chimeric antibody KM3334 obtained in 3.(2) of Reference Example 1 was used as a positive control.
HBS-EP (manufactured by BIACORE) was used hereinafter as a sample diluent and a buffer during measurement. First, Sensor Chip CM5 (manufactured by BIACORE) was installed, and FGF-8 (manufactured by R & D) dissolved in 31.25 μg/mL of 10 mmol/L acetate buffer solution (pH 4.0) was immobilized on the surface of the sensor chip by the amine coupling method. The immobilization amount measured by using a resonance signal (RU) as an index was 4498 RU.
60 μL of each of the antibody solutions was added to an FGF-8 immobilized flow cell at a flow rate of 20 μL/min, and the dissociation reaction was then monitored for 3 minutes. After the dissociation reaction, 20 μL of a 10 mmol/L glycine-hydrochloride solution (pH 1.5) was added to the flow cell twice continuously to regenerate the surface of the chip. This cycle was performed with the antibody solution at various concentrations (from 50 to 0.068 μg/mL) to obtain sensor grams at various concentrations. The sensor grams of the respective antibodies were converted to sensor grams of specific reactions by deducing a sensor gram obtained using chimeric antibody KM871 (Shitara K. et al., Cancer Immunol. Immunother., 36, 373-380, 1993) to GD3 as a negative control. […] Accordingly, the binding activity of the various antibodies was compared in terms of the binding [resonance signal (RU)] in the binding reaction. […] The effect of restoring the binding activity was not observed in the 6 amino acid residues of FR of VH.

[2] = target: T2, compound 1 as a partial peptide of FGF-8 (Homo sapiens, UniProt P55075); experiment: FGF-8 binding activity by BIAcore 2000, immobilized biotin-labeled compound 1; settings: antibody 16.7 μg/mL; FGF-8 peptide immobilized 35 RU
T2 construct: 17; made in house; host or cells: chemical synthesis
T2 sequence (P55075 with tags, fused parts or gaps isoform P55075-3 limits assumed): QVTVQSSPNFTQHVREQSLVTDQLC
Description: In order to examine the FGF-8 binding activity of the anti-FGF-8 neutralizing CDR-grafted antibodies obtained in 5. of Reference Example 3, the FGF-8 binding activity of the various anti-FGF-8 neutralizing CDR-grafted antibodies was measured and compared through BIAcore 2000 using compound 1 as a partial peptide of FGF-8 with the C terminal labeled with biotin in the following manner. The anti-FGF-8 neutralizing chimeric antibody KM3034 derived from CHO/DG44 cells obtained in 3. (1) of Reference Example 1 was used as a positive control.
HBS-EP was used as a sample diluent and a buffer during measurement. First, Sensor Chip SA (manufactured by BIACORE) was installed, and 5 μL of compound 1 labeled with biotin which had been adjusted to 0.05 μg/mL was added at a flow rate of 5 μL/min. Then, 5 μL of a 10 mmol/L glycine-hydrochloride solution (pH 1.5) was added twice continuously to wash the tip surface. The immobilization amount of the FGF-8 peptide was 35 RU.
60 μL of each of the antibody solutions was added to an FGF-8 peptide immobilized flow cell at a flow rate of 20 μL/min, and the dissociation reaction was then monitored for 3 minutes. After the dissociation reaction, 20 μL of 10 mmol/L glycine-hydrochloride solution (pH 1.5) was added twice continuously to regenerate the chip surface. This cycle was performed on the antibody solution at various concentrations (from 50 to 1.85 μg/mL) to obtain sensor grams at various concentrations. The sensor grams of the respective antibodies were converted to sensor grams of specific reactions by deduceing a sensor gram obtained using the chimeric antibody KM871 to GD3 as a negative control.

[3] = target: T1, FGF-8; experiment: FGF-8 neutralizing activity: FGF-8-dependent growth of mouse breast cancer cell line SC-3; type: cell-based; settings: SC-3 cells, FGF-8 50 ng/mL, WST-1
Description: The FGF-8 neutralizing activity of the purified anti-FGF-8 neutralizing chimeric antibody was evaluated by measured the following FGF-8-dependent growth inhibitory effect of mouse breast cancer cell line SC-3 (Tanaka A. et al., Proc. Natl. Acad. Sci. USA, 89, 8928-8932, 1992) described below. That is, SC-3 cells were suspended at a concentration of 3.0×10^4 cells/mL in DMEM:Ham's F12 (1:1) medium [a mixed medium of DMEM medium and Ham's F12 medium (manufactured by Invitrogen) at a ratio of 1:1] containing activated charcoal-treated FBS at a concentration of 2%. The suspension was inoculated on a 96-well plate in an amount of 150 μL (4.5×10^3 cells)/well. After the culturing in a 5% CO2 incubator at 37° C. for 18 hours, the medium was replaced with 100 μL/well of a test medium. The test medium was produced by dissolving 50 ng/mL of FGF-8 (manufactured by R & D) and the anti-FGF-8 neutralizing chimeric antibody at each dilute concentration in DMEM:Ham's F12 (1:1) medium containing 0.1% BSA. The chimeric antibody KM2760 to human chemokine CCR4 described in WO 01/64754 was used as an antibody of a negative control. After the culturing in a 5% CO2 incubator at 37° C. for 48 hours, the medium was replaced with a freshly prepared test medium, and the culturing was further performed for 48 hours. WST-1 Reagent (manufactured by Roche) was added in an amount of 10 μL/well, and the mixture was culturing in a 5% CO2 incubator at 37° C. for 1 hour while being gently stirred. Then, absorbance (OD450,650) was measured. In FIG. 21, the abscissa represents a concentration of an antibody added, and the ordinate represents relative growth (%) to growth when adding 50 ng/mL of FGF-8 alone. The relative growth (%) to growth when adding 50 ng/mL of FGF-8 alone was calculated by the following formula. Relative growth (%) to growth when adding FGF-8={(Absorbance when adding FGF-8 and antibody−Absorbance when not adding FGF-8 and antibody)/(Absorbance when adding FGF-8 alone−Absorbance when not adding FGF-8 and antibody)}×100

B1: KM3334: anti-FGF-8 neutralizing human chimeric antibody, VH SEQ ID NO. 5, VL SEQ ID NO. 6, human γ1/κ, YB2/0 cell-derived (antibody, listed as Mus musculus, V domains shown)
VH: QVQLQQSGAEVARPGASVKLSCKASGYTFTDYYLNWVKQRSGQGLEWIGEIDPGSDSIYYNENLEGRATLTADKSSSTAYMQLNSLTSEDSAVYFCARYGYSRYDVRFVYWGQGTLVTVST
VL: DVLMTQTPLSLPVSLGDQASISCRSSQSLVHSNGRTYLEWYLQKPGQSPKVLIYKVSNRISGVPDRFSGSGSGTDFTLKISRVEAEDLGVYFCFQGSHVPYTFGGGTKLEIK
binding reaction [resonance signal (RU)] [1]: the highest binding reaction

B2: HV0LV6: YB2/0 cell-derived anti-FGF-8 neutralizing CDR-grafted antibody, VH HV.0 (SEQ ID NO. 18), VL LV.6 (SEQ ID NO. 21) (antibody, V domains shown)
VH: QVQLVQSGAEVKKPGASVKVSCKASGYTFTDYYLNWVRQAPGQGLEWMGEIDPGSDSIYYNENLEGRVTITADTSTSTAYMELSSLRSEDTAVYYCARYGYSRYDVRFVYWGQGTLVTVSS
VL: DVVMTQSPLSLPVSLGEPASISCRSSQSLVHSNGRTYLEWYLQKPGQSPKVLIYKVSNRISGVPDRFSGSGSGTDFTLKISRVEAEDVGVYFCFQGSHVPYTFGQGTKVEIK
modifications: HV.0, a designed amino acid sequence of VH of an anti-FGF-8 CDR-grafted neutralizing antibody; LV.6, a designed amino acid sequence of VL of an anti-FGF-8 CDR-grafted neutralizing antibody
binding reaction [resonance signal (RU)] [1]: the same high binding reaction as KM3334

B3: HV0LV4-3/CHO: CHO/DG44 cell-derived anti-FGF-8 neutralizing CDR-grafted antibody, VH HV.0, VL LV.4-3 (SEQ ID NO. 50) (antibody, V domains shown)
VH: QVQLVQSGAEVKKPGASVKVSCKASGYTFTDYYLNWVRQAPGQGLEWMGEIDPGSDSIYYNENLEGRVTITADTSTSTAYMELSSLRSEDTAVYYCARYGYSRYDVRFVYWGQGTLVTVSS
VL: DIVMTQSPLSLPVSLGEPASISCRSSQSLVHSNGRTYLEWYLQKPGQSPQVLIYKVSNRISGVPDRFSGSGSGTDFTLKISRVEAEDVGVYFCFQGSHVPYTFGQGTKVEIK
binding reaction [resonance signal (RU)] [2]: the higher binding reaction than that of the HV0LV3-1/CHO and similar to that of the HV0LV6/CHO | FGF-8 neutralizing activity (SC-3 cell growth inhibitory activity) [3]: approximately half that of the chimeric antibody KM3034

B4: HV0LV3-3/CHO: CHO/DG44 cell-derived anti-FGF-8 neutralizing CDR-grafted antibody, VH HV.0, VL LV.3-3 (SEQ ID NO. 51) (antibody, V domains shown)
VH: QVQLVQSGAEVKKPGASVKVSCKASGYTFTDYYLNWVRQAPGQGLEWMGEIDPGSDSIYYNENLEGRVTITADTSTSTAYMELSSLRSEDTAVYYCARYGYSRYDVRFVYWGQGTLVTVSS
VL: DIVMTQSPLSLPVSLGEPASISCRSSQSLVHSNGRTYLEWYLQKPGQSPQVLIYKVSNRISGVPDRFSGSGSGTDFTLKISRVEAEDVGVYYCFQGSHVPYTFGQGTKVEIK
binding reaction [resonance signal (RU)] [2]: lower than that of the HV0LV3-1 | FGF-8 neutralizing activity (SC-3 cell growth inhibitory activity) [3]: approximately half that of the chimeric antibody KM3034

B5: HV0LV3-1/CHO: CHO/DG44 cell-derived anti-FGF-8 neutralizing CDR-grafted antibody, VH HV.0, VL LV.3-1 (SEQ ID NO. 44) (antibody, V domains shown)
VH: QVQLVQSGAEVKKPGASVKVSCKASGYTFTDYYLNWVRQAPGQGLEWMGEIDPGSDSIYYNENLEGRVTITADTSTSTAYMELSSLRSEDTAVYYCARYGYSRYDVRFVYWGQGTLVTVSS
VL: DVVMTQSPLSLPVTPGEPASISCRSSQSLVHSNGRTYLEWYLQKPGQSPQVLIYKVSNRISGVPDRFSGSGSGTDFTLKISRVEAEDVGVYFCFQGSHVPYTFGQGTKVEIK
binding reaction [resonance signal (RU)] [2]: the higher binding reaction | FGF-8 neutralizing activity (SC-3 cell growth inhibitory activity) [3]: the next high FGF-8 neutralizing activity

B6: HV0LV4-1/CHO: CHO/DG44 cell-derived anti-FGF-8 neutralizing CDR-grafted antibody, VH HV.0, VL LV.4-1 (SEQ ID NO. 42) (antibody, V domains shown)
VH: QVQLVQSGAEVKKPGASVKVSCKASGYTFTDYYLNWVRQAPGQGLEWMGEIDPGSDSIYYNENLEGRVTITADTSTSTAYMELSSLRSEDTAVYYCARYGYSRYDVRFVYWGQGTLVTVSS
VL: DVVMTQSPLSLPVTPGEPASISCRSSQSLVHSNGRTYLEWYLQKPGQSPKVLIYKVSNRISGVPDRFSGSGSGTDFTLKISRVEAEDVGVYFCFQGSHVPYTFGQGTKVEIK
binding reaction [resonance signal (RU)] [2]: the higher binding reaction | FGF-8 neutralizing activity (SC-3 cell growth inhibitory activity) [3]: slightly lower FGF-8 neutralizing activity than the HV0LV3-1/CHO

B7: HV0LV2-1/CHO: CHO/DG44 cell-derived anti-FGF-8 neutralizing CDR-grafted antibody, VH HV.0, VL LV.2-1 (SEQ ID NO. 46) (antibody, V domains shown)
VH: QVQLVQSGAEVKKPGASVKVSCKASGYTFTDYYLNWVRQAPGQGLEWMGEIDPGSDSIYYNENLEGRVTITADTSTSTAYMELSSLRSEDTAVYYCARYGYSRYDVRFVYWGQGTLVTVSS
VL: DIVMTQSPLSLPVTPGEPASISCRSSQSLVHSNGRTYLEWYLQKPGQSPQVLIYKVSNRISGVPDRFSGSGSGTDFTLKISRVEAEDVGVYFCFQGSHVPYTFGQGTKVEIK
binding reaction [resonance signal (RU)] [2]: the higher binding reaction | FGF-8 neutralizing activity (SC-3 cell growth inhibitory activity) [3]: the lowest neutralizing activity
